T1: cynomolgus monkey CD19 on peripheral blood B cells (cynomolgus monkey (Macaca fascicularis), UniProt A0A2K5W8L9 20-557)
T1 construct: whole, on cells; also called cynomolgus monkey B cells
T1 sequence: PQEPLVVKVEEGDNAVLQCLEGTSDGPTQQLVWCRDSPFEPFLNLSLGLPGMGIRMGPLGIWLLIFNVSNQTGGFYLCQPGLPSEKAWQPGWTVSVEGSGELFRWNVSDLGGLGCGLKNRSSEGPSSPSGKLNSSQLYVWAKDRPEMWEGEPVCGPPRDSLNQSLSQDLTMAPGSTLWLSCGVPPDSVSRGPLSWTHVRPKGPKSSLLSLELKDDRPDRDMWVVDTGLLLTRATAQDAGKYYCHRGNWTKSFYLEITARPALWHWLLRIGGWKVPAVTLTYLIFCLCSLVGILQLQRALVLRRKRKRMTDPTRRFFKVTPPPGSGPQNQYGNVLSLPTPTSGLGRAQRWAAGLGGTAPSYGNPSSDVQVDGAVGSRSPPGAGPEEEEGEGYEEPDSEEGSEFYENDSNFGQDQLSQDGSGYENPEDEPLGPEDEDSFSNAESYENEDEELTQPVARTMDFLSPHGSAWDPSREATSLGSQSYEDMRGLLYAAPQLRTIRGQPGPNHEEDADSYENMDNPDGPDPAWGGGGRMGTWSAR

T2: human CD19 on Raji cells (human, UniProt P15391 20-556)
T2 construct: whole, on cells
T2 sequence (looked up): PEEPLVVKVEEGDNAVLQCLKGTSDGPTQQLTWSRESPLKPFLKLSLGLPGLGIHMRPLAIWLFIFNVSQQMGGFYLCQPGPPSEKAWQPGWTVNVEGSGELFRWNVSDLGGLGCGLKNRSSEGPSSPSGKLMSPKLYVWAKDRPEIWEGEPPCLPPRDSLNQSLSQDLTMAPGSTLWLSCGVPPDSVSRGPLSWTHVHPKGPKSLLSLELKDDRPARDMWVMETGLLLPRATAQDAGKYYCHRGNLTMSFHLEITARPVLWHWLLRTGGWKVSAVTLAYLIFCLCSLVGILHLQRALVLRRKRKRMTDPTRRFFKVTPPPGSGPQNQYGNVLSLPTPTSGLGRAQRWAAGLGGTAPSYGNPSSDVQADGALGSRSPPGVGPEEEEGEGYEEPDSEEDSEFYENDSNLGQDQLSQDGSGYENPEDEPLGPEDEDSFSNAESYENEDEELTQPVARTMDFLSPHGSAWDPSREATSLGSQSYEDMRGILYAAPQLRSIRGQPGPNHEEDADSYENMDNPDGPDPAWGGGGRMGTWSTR

T3: human CD19 on CHO-K1-human CD19 cells (human, UniProt P15391 20-556)
T3 construct: whole, on cells; also called CHO-K1-human CD19-2C8
T3 sequence (looked up): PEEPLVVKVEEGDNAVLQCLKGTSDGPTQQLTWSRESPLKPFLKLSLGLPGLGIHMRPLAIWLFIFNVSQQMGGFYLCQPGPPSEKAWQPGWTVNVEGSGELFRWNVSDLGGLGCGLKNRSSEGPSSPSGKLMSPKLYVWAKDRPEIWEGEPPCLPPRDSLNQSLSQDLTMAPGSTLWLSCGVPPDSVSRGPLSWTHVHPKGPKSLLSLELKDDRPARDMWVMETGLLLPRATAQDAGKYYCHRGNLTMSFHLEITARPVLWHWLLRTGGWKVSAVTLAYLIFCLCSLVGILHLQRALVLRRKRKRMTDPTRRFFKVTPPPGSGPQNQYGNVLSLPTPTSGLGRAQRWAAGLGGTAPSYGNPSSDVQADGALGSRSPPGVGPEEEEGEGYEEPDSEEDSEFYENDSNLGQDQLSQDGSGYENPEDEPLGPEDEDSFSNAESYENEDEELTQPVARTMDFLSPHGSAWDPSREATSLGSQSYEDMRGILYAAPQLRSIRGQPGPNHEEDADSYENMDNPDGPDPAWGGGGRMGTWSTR


How the values were obtained:
[1] = biological target: T4, monkey CD19 on HEK293T-monkey CD19 cells (monkey); test: FACS on HEK293T-monkey CD19 cells
T4 construct: whole, on cells
Method in brief: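 Antibody binding was read as MFI by flow cytometry and EC50 was taken from curve fitting. Before that, cells at 2×10⁶ cells/ml in PBS with 2% (w/w) BSA were exposed to samples for 2 h on ice and washed. Parental HEK293T cells were tested the same way.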

[2] = biological target: T1, cynomolgus monkey CD19 on peripheral …; test: FACS, cynomolgus PBMC, CD20+ B cells
human CD19 on Raji cells = biological target: T2, human CD19 on Raji cells; test: FACS on Raji cells
[3] = biological target: T3, human CD19 on CHO-K1-human CD19 cells; test: FACS on CHO-K1-human CD19 cells

Binder | Maximum mean fluorescence intensity [1] | Proportion of chimeric antibody positive cells to B cells (%) at 1 nM [2] [%] | Proportion of chimeric antibody positive cells to B cells (%) at 10 nM [2] [%] | Proportion of chimeric antibody positive cells to B cells (%) at 100 nM [2] [%] | EC50 (human CD19 on Raji cells) [nM] | Maximum mean fluorescence intensity (human CD19 on Raji cells) | EC50 [3] [nM] | Maximum mean fluorescence intensity [3] | EC50 [1] [nM]
F4.33.12 (antibody, human IgG1, V domains shown, human-murine chimeric antibody, human IgG1) VH: QVQLQQSGAELVRPGSSVKISCKGSGYAFSSYWMNWVKQRPGQGLEWIGQIYPGDGDTNYNGKFKGKATLTADKSSSTAYMQLSSLTSEDSAVYFCARAGFYYGSDSSMDYWGQGTSVTVSS VL: not shown | 50 | 1 | 1 | 2 | 2.6 | 28200 | 1.47 | 52500 | –
F4.4.6 (antibody, human IgG1, V domains shown, human-murine chimeric antibody, human IgG1) VH: QVQLQQSGAELARPGASVKLSCKASGYTFTSYWMQWVKQRPGQGLEWIGAIYPGDGDSRYTQKFKGKATLTADKSSSTAYMQLSSLASEDSAVYYCARSTTTVLGNNFEYWGQGTTLTVSS VL: QIVLTQSPAIMSALPGEKVTMTCSASSSVSSMHWYQQKSGTSPKRWIYDTSKLASGVPARFSGSGSGTSYSLTISSMEAEDAATYYCQQWSSNPWTFGGGTKLEIK | 662 | 2 | 2 | 3 | 0.56 | 26000 | 0.08 | 14800 | –
F4.48.12 (antibody, human IgG1, V domains shown, human-murine chimeric antibody, human IgG1) VH: QMQLKESGPGLVAPSQSLSITCTVSGFSLTDYGVSWIRQPPGKGLEWLGVIWGSGSTFYNSALTSRLSISKDNSKSQVFLKMNSLQTADTAMYFCAKHHYYGGSFAMDYWGQGTSVTVSS VL: DIQMTQASSSLSASLGDRVTISCKTSQDISNYLNWYQQKPDGTFKLLIHYTSRLHSGVPSRFSGSGSGSDYSLTISNLEREDIATYFCQQGNSLPYTFGGGTKLEMK | 14300 | 1 | 8 | 22 | 0.55 | 29300 | 0.48 | 52700 | 184
F4.18.13 (antibody, human IgG1, V domains shown, human-murine chimeric antibody, human IgG1) VH: QVQLQQSGPELVKPGASVKISCKASGYAFSSFWMNWVKQRPGEGLEWIGRIYPGDGDTNYNGKFKGKATLTADDSSSTAYMQLSSLTSVDSAVYFCAREVIAAVVTTDFDYWGQGTTLTVSS VL: DIQMTQTTSSLSASLGDRVTISCRTSQDISNYLNWYLQKPDGTVKLLIYYTSGLHSGVPSRFSGSGSGTDYSLTISNLEPEDIATYFCQQGKTLPYTFGGGTKLEIK | 19700 | 2 | 8 | 21 | 1.31 | 35200 | 0.6 | 51600 | 26.2
F4.41.1 (antibody, human IgG1, V domains shown, human-murine chimeric antibody, human IgG1) VH: QVQLQQSGAELVRPGTSVKVSCKASGYAFTNYLIEWVKQRPGQGLEWIGVINPGSGDTLYNEKFKGKATLTADKSSTTAYMQLSGLTSDVSAIYFCARSPPITTIVADYFDYWGQGTTLTVSS VL: DIQMTQTTSSLSASLGDRVTISCRASQDISNYLNWYQQKPDGTVKLLIYYTSRLHSGVPSRFSGSGSGADYSLTISNLEQEDIATYFCQQGKTLPYTFGGGTKLEIK | 545 | 1 | 2 | 2 | 1.02 | 23400 | 1.49 | 48600 | –
F4.35.5 (antibody, human IgG1, V domains shown, human-murine chimeric antibody, human IgG1) VH: EIQLQQSGPELVKPGASVKVSCKASGYAFTSYNMYWVKQSHGKSLEWIGYIDPYNGDTRYNQKFKGKATLTVDKSSSTAYMHLNSLTSEDSAVYYCTRSGTGRDYWGQGTTLTVSS VL: QIVLTQSPAIMSASPGEKVTMTCSASSSISYMFWFQQKPGSSPRLLIYDTSSLASGVPVRFSGSGSGTSYTLTISRMEAEDAATYYCQQWSNYPYTFGGGTKLEMK | 70 | 1 | 2 | 3 | 0.69 | 25000 | 1.08 | 50000 | –
F4.22.6 (antibody, human IgG1, V domains shown, human-murine chimeric antibody, human IgG1) VH: QVQLQQSGPELVKPGASVKISCKASGYAFSSFWMNWVKQRPGQGLEWIGRIYPGDGDTNYNGKFKGKATLTADKSSTTAYMHLSSLTSVDSAVYFCTRSVITAVVDWYFDVWGAGTTVTVSS VL: QIVLSQSPAILSASPGEKVTLTCRASSSVNFMHWYQQKPGSSPKPWIYATSNLASGAPARFSGSGSGTSYSLTISRVEAEDAAAYYCQQWSSYPIFTFGSGTKLEIK | 7380 | 2 | 2 | 12 | 0.67 | 27300 | 0.1 | 14700 | ~129
F4.21.2 (antibody, human IgG1, V domains shown, human-murine chimeric antibody, human IgG1) VH: QVQLKQSGPGLVQPSQSLSITCTVSGFSLSTYGVHWVRQSPGRGLEWLGVIWIGGTTDYNAAFISRLTISKDNSRGQVFFKMDSLQANDTAIYYCARKGYYKYDGGYYYAMDYWGQGTSVTVSS VL: DIQMTQSSSYLSVSLGGRVTITCKASDHINNWLAWYQQKPGNAPWLLISGATSLETGVPSRFSGSGSGKDYTLSISSLQTEDVATYYCQQYWSTPLTFGAGTKLELK | 39200 | 2 | 3 | 18 | 2.69 | 30800 | 1.02 | 52600 | 9.1
F4.37.6 (antibody, human IgG1, V domains shown, human-murine chimeric antibody, human IgG1) VH: QVQLQQSGAELARPGASVKLSCKASGYTFTSFWMQWLKQRPGQGLEWIGTIYPGDGDTRYTQKFKGKATLTADKSSNTAYMQLSSLASEDSAVYYCARGALSNYGGFAYWGQGTLVTVSA VL: NIVLTQSPASLAVSLGQRATISCRASESVDSYGHSFMHWYQQKPGQPPKLLIYLASNLESGVPARFSGSGSRTDFTLTIDPVEADDAATYYCQQNNEDPWTFGGGTKLEIK | 58 | 2 | 2 | 6 | 0.51 | 24600 | ~0.035 | 8490 | –

Reference: US20250042994A1 (HAINAN SIMCERE ZAIMING PHARMACEUTICAL, published 2025)
